1 molecule from PMC11680790 (2024) can be followed below.

The target of experiment [1] is T1, NXE’992, chimeric peptide (pyrazole-QRPRL[AIB]S[PipALA]VPFP) (UniProt Q9ULZ1, pyrazole on the N-terminus; AIB at position 6; PipALA at position 8). Put plainly: SPR; pH 6.0. On the technique in general: SPR reads the build-up and loss of mass on a sensor chip optically.
The target in experiment [2] is T1, NXE’992, chimeric peptide …. Put plainly: SPR; pH 7.5.

One may read the Kd as a measure of binding affinity in units of concentration. A lower Kd goes with a tighter complex.

B1: human apelin stabilised receptor (NxStaR) (receptor)
chain: MEEGGDFDNYYGADNQSECEYTDWKSSGALIPAIYMLVFLLGTTGNGLVLWTVFRSSREKRRSADIFIASLAVADLTFVVTLPLWAVYTYRDYDWPFGTFFCKLSSYLIFVAMYASVFCLTGLSFDRYLAIVRPVANARLRLRVSGAVATAVLWVLAALLAMPVMVLRTTGDLENTTKVQCYMDYSMVATVSSEWAWEVGLGVSSTMVGFVVPLTIMLTCYFFAAQTIAGHFRKERIEGLRKRRRLLSIIVVLVVTFALCWMPYHLVKTLYMLGSLLHWPCDFDLFLMNIFPYCTCIAYVNSCLNPFLYAFFDPRFRQACTSMLCCGQSRCAGTSHSSSGEKSASYSSGHSQGPGPNMGKGGEQMHEKSIPYSQETLVVD
With B1, the Kd in experiment [1] was 21 nM; in experiment [2] it was 3.3 nM.
